Data from publication PMC4949257, “Three CoA Transferases Involved in the Production of Short Chain Fatty Acids in Porphyromonas gingivalis” (Frontiers in Microbiology, 2016).

Columns and labels:
[1] = substrate: CC(=O)O; assay: purified protein; settings: co-substrate butyryl-CoA, 40 mM potassium phosphate pH 8.0, ternary-complex mechanism
[2] = substrate: CCCC(=O)SCCNC(=O)CCNC(=O)[C@H](O)C(C)(C)COP(=O)(O)OP(=O)(O)OC[C@H]1O[C@@H](n2cnc3c(N)ncnc32)[C@H](O)[C@@H]1OP(=O)(O)O; assay: acetyl-CoA formation, citrate synthase/DTNB A412, secondary plots; type: biochemical, Porphyromonas gingivalis; settings: co-substrate sodium acetate, 40 mM potassium phosphate pH 8.0, ternary-complex mechanism
From the text: acetyl-CoA formation, citrate synthase/DTNB A412, secondary plots on PGN_1341

[3] = substrate: CCC(=O)SCCNC(=O)CCNC(=O)[C@H](O)C(C)(C)COP(=O)(O)OP(=O)(O)OC[C@H]1O[C@@H](n2cnc3c(N)ncnc32)[C@H](O)[C@@H]1OP(=O)(O)O; assay: as above; type: biochemical, Porphyromonas gingivalis; settings: co-substrate sodium acetate, 40 mM potassium phosphate pH 8.0, ternary-complex mechanism
From the text: (§1) acetyl-CoA formation, citrate synthase/DTNB A412, secondary plots on PGN_1888

[4] = substrate: CCCC(=O)SCCNC(=O)CCNC(=O)[C@H](O)C(C)(C)COP(=O)(O)OP(=O)(O)OC[C@H]1O[C@@H](n2cnc3c(N)ncnc32)[C@H](O)[C@@H]1OP(=O)(O)O; assay: as above; type: biochemical, Porphyromonas gingivalis; settings: co-substrate sodium acetate, 40 mM potassium phosphate pH 8.0, ternary-complex mechanism; remark: listed apart in the source
From the text: as §1

[5] = substrate: CCC(=O)SCCNC(=O)CCNC(=O)[C@H](O)C(C)(C)COP(=O)(O)OP(=O)(O)OC[C@H]1O[C@@H](n2cnc3c(N)ncnc32)[C@H](O)[C@@H]1OP(=O)(O)O; assay: as above; type: biochemical, Porphyromonas gingivalis; settings: co-substrate sodium acetate, 40 mM potassium phosphate pH 8.0, ternary-complex mechanism; remark: listed apart in the source
From the text: (§2) acetyl-CoA formation, citrate synthase/DTNB A412, secondary plots on PGN_0725

[6] = substrate: CCCC(=O)SCCNC(=O)CCNC(=O)[C@H](O)C(C)(C)COP(=O)(O)OP(=O)(O)OC[C@H]1O[C@@H](n2cnc3c(N)ncnc32)[C@H](O)[C@@H]1OP(=O)(O)O; assay: as above; type: biochemical, Porphyromonas gingivalis; settings: co-substrate sodium acetate, 40 mM potassium phosphate pH 8.0, ternary-complex mechanism; remark: listed apart in the source
From the text: as §2

B1: PGN_1341 (Porphyromonas gingivalis ATCC 33277) (protein)
chain: MALRFITAEEAAEFVHHNDNVGFSGFTPAGNPKVVPAAIAKRAIAEHEKGNPFKIGMFTGASTGARLDGVLAQADAVKFRTPYQSNKDLRNLINNGSTSYFDLHLSTLAQDLRYGFYGKVDVAIIEVADVTEDGKILPTTGVGILPTICRLADRIIVELNDKHPKEIMGMHDLCEPLDPPARRELPVYTPSDRIGKPYVQVDPAKIVGVVRTSEPNDESDFAPLDPVTQAIGDNVAAFLVSEMKAGRIPKDFLPLQSGVGNVANAVLGALGDNPDIPAFNMYTEVIQDAVIALMKKGRIKFASGCSLSVSRSVIQDIYANLDFFKDKILLRPQEYSNNPEIVRRLGVITINTALEADIFGNINSTHVSGTRMMNGIGGSGDFTRNSYVSIFTTPSVMKDGKISSFVPMVAHHDHSEHSVKVIISEWGVADLRGKNPRERAHEIIDKCVHPDYRPLLRQYLELGVKGQTPQNLDCCFAFHQELAKSGDMRNVRWEDYMK
notes: recombinant full-length, pGEX-6P-1 (GST vector) in E. coli; 498 aa
[1]
  Km: 26000 ± 2800 µM
  kcat: 24 ± 0.3 s⁻¹
[2]
  Km: 610 ± 40 µM
  kcat: 24 ± 0.3 s⁻¹

B2: PGN_1888 (Porphyromonas gingivalis ATCC 33277) (protein)
chain: MQWQELYRQRVCSADEAVVDSLKPGTKVVFGHAAAAPVRFSQAMYRQRERLENITVFHMLYFGDAPHLAPEMRSHVHPTLNFLEGNSRPASRDRRVDFIPCHFHEVPELFRQGFFPLDVAVVQVSTPNEEGYCSFGVSCDYTKAAAECAPVVVAEVNKQMPFIGGENLIHISNLTHIIEVDEPIAEVLPPAISDLELRIGQNCASLIKDGDTLQLGIGGIPDAVLRALEGHKDLGIHTEMFTDGVMRMIRKGIINGKKKTLHPEKVVTSLIFGSKELYDFVNNNPVIECYPVDYINNPDVIGKNDRMVSINSCLEMDLMGQAASESIGYEQFSGSGGQVDFLRGAKRSKGGISIMAFPSTAKKGTESRIVPILKEGACVTTGRNEVDYVVTEYGVARLRGATLRQRAEALTAIAHPDFRPALEEEIRRRFE
notes: recombinant full-length, pGEX-6P-1 (GST vector) in E. coli; 431 aa
[1]
  Km: 33000 ± 5300 µM
  kcat: 254 ± 10 s⁻¹
[3]
  Km: 23 ± 4.4 µM
  kcat: 1374 ± 477 s⁻¹
[4]
  Km: 920 ± 70 µM
  kcat: 254 ± 10 s⁻¹

B3: PGN_0725 (Porphyromonas gingivalis ATCC 33277) (protein)
chain: MKDVLAEYASRIVSAEEAVKHIKNGERVALSHAAGVPQSCVDALVQQADLFQNVEIYHMLCLGEGKYMAPEMAPHFRHITNFVGGNSRKAVEENRADFIPVFFYEVPSMIRKDILHIDVAIVQLSMPDENGYCSFGVSCDYSKPAAESAHLVIGEINRQMPYVHGDNLIHISKLDYIVMADYPIYSLAKPKIGEVEEAIGRNCAELIEDGATLQLGIGAIPDAALLFLKDKKDLGIHTEMFSDGVVELVRSGVITGKKKTLHPGKMVATFLMGSEDVYHFIDKNPDVELYPVDYVNDPRVIAQNDNMVSINSCIEIDLMGQVVSECIGSKQFSGTGGQVDYVRGASWSKNGKSIMAIPSTAKNGTASRIVPIIAEGAAVTTLRNEVDYVVTEYGIAQLKGKSLRQRAEALIAIAHPDFREELTEHLRKRFG
notes: as for B2
[1]
  Km: 16000 ± 1800 µM
  kcat: 560 ± 4.1 s⁻¹
[5]
  Km: 108 ± 47 µM
  kcat: 533 ± 31 s⁻¹
[6]
  Km: 520 ± 10 µM
  kcat: 560 ± 4.1 s⁻¹
